Experimental data: patent publication US5770691A, “Discriminatory substrates for MMP hydrolysis” (Regents of the University of Minnesota, priority 1995, dated 1998)

B1: MMP-1 (Homo sapiens) (protein)
chain: FVLTEGNPRWEQTHLTYRIENYTPDLPRADVDHAIEKAFQLWSNVTPLTFTKVSEGQADIMISFVRGDHRDNSPFDGPGGNLAHAFQPGPGIGGDAHFDEDERWTNNFREYNLHRVAAHELGHSLGLSHSTDIGALMYPSYTFSGDVQLAQDDIDGIQAIYGRSQNPVQPIGPQTPKACDSKLTFDAITTIRGEVMFFKDRFYMRTNPFYPEVELNFISVFWPQLPNGLEAAYEFADRDEVRFFKGNKYWAVQGQNVLHGYPKDIYSSFGFPRTVKHIDAALSEENTGKTYFFVANKYWRYDEYKRSMDPGYPKMIAHDFPGIGHKVDAVFMKDGFFYFFHGTRQYKFDPKTKRILTLQKANSWFNCRKN
notes: made in house; host or cells: native secreted protein purified from culture medium of human rheumatoid synovial cells
B2: MMP-2 (Homo sapiens) (protein)
chain: YNFFPRKPKWDKNQITYRIIGYTPDLDPETVDDAFARAFQVWSDVTPLRFSRIHDGEADIMINFGRWEHGDGYPFDGKDGLLAHAFAPGTGVGGDSHFDDDELWTLGEGQVVRVKYGNADGEYCKFPFLFNGKEYNSCTDTGRSDGFLWCSTTYNFEKDGKYGFCPHEALFTMGGNAEGQPCKFPFRFQGTSYDSCTTEGRTDGYRWCGTTEDYDRDKKYGFCPETAMSTVGGNSEGAPCVFPFTFLGNKYESCTSAGRSDGKMWCATTANYDDDRKWGFCPDQGYSLFLVAAHEFGHAMGLEHSQDPGALMAPIYTYTKNFRLSQDDIKGIQELYGASPDIDLGTGPTPTLGPVTPEICKQDIVFDGIAQIRGEIFFFKDRFIWRTVTPRDKPMGPLLVATFWPELPEKIDAVYEAPQEEKAVFFAGNEYWIYSASTLERGYPKPLTSLGLPPDVQRVDAAFNWSKNKKTYIFAGDKFWRYNEVKKKMDPGFPKLIADAWNAIPDNLDAVVDLQGGGHSYFFKGAYYLKLENQSLKSVKFGSIKSDWLGC
notes: as for B1

Legend:
Format in all cases: biochemical, human
[1] = substrate: COc1ccc2c(CC(=O)N3CCC[C@H]3C(=O)N[C@@H](CCCCN)C(=O)N3CCC[C@H]3C(=O)N[C@@H](CCC(N)=O)C(=O)N[C@@H](CCC(N)=O)C(=O)N[C@@H](Cc3ccccc3)C(=O)N[C@@H](Cc3ccccc3)C(=O)NCC(=O)N[C@@H](CC(C)C)C(=O)N[C@@H](CCCCNc3ccc([N+](=O)[O-])cc3[N+](=O)[O-])C(=O)NCC(=O)O)cc(=O)oc2c1; experiment: Fluorometric hydrolysis of synthetic Mca/Lys(Dnp) substrates by MMP-1; details: other: MMP-1, 37° C., pH 7.5
Source text: (§1) All MMPs were purified in zymogen form. ProMMP-1 (Suzuki et al., Biochem., 29, 10261 (1990)), proMMP-2 (Okada et al., Eur. J. Biochem., 194, 721 (1990)), and proMMP-3 (Ito et al., Arch. Biochem. Biophys., 267, 211 (1988)) were purified from the culture medium of human rheumatoid synovial cells stimulated with rabbit macrophage-conditioned medium. ProMMP-9 was purified from the culture medium of HT-1080 cells as described in Morodomi et al., Biochem. J., 285, 603 (1992). ProMMP-2 and proMMP-9 were activated by reacting with 1 mM 4-aminophenylmercuric acetate at 37° C. for 45 minutes and 32 hours, respectively. ProMMP-1 was activated by reacting with 1 mM 4-aminophenylmercuric acetate and an equimolar amount of MMP-3 at 37° C. for 6 hours. After activation, MMP-3 was completely removed from MMP-1 by affinity chromatography using an anti-MMP-3 IgG Affi-Gel 10 column. The resin, Affi-Gel 10 (Biorad, Emoryville, Calif.), was coupled to anti-MMP-3 IgG (Okada et al., Annals of Rheumat. Dis., 48, 645 (1989)) per the manufacturer's protocol. Pro-MMP-3 was activated by reacting with 5 μg/mL chymotrypsin at 37° C. for 2 hours. Chymotrypsin was inactivated with 2 mM diisopropylfluorophosphate. The amounts of active MMP-1, MMP-2, and MMP-3 were determined by titration with tissue inhibitor of metalloproteinase-1(TIMP1) over a concentration range of 0.1-3 μg/mL, while the amount of active MMP-9 was determined by titration with TIMP-2 (0.1-3 μg/mL). TIMP-1 was isolated from the medium of HT-1080 cells as described in Morodomi et al., Biochem J., 285, 603 (1992).
(§2) Substrates were prepared as 10 mM stock solutions in dimethylsulfoxide (DMSO). Fluorescent assays were performed at λex =325 nm and λem =393 nm, which should encounter no interference from Trp residues, using a Hitachi fluorescence spectrophotometer F-3010. Initial total hydrolysis assays were run at a substrate concentration of […] to avoid filtering effects. The change in fluorescence at this concentration was 110 based on total hydrolysis of 1 μM substrate. A typical assay was carried out by incubating 100 μL of various concentrations of a substrate with 10 μL of an enzyme solution (2-20 nM) in 50 mM Tris-HCl, pH 7.5, 0.15M NaCl, 10 mM CaCl2, 0.05% Brij 35, 0.02% NaN3. The reaction was stopped by addition of 900 μl of 3% (v/v) glacial acetic acid. MMP-3 activity at pH 6.0 was measured in 50 mM sodium acetate buffer, pH 6.0, instead of Tris-HCl buffer. The amount of substrate hydrolysis was calculated based on the fluorescence values of the Mca-Arg-Pro-Lys-Pro-Gln standard solution after substraction of the reaction blank value (stopping solution added before the enzyme). Individual kinetic parameters (kcat and KM) were determined over a substrate concentration range of 2.5-75 μM and calculated by double reciprocal plots.

[2] = substrate: CCC[C@H](NC(=O)[C@H](C)NC(=O)[C@H](Cc1ccc(O)cc1)NC(=O)[C@@H]1CCCN1C(=O)[C@H](CCCCN)NC(=O)[C@@H]1CCCN1C(=O)[C@H](CCCNC(=N)N)NC(=O)Cc1cc(=O)oc2cc(OC)ccc12)C(=O)N[C@@H](Cc1c[nH]c2ccccc12)C(=O)N[C@@H](CCSC)C(=O)N[C@@H](CCCCNc1ccc([N+](=O)[O-])cc1[N+](=O)[O-])C(N)=O; experiment: as above; details: other: MMP-1, 37° C., pH 7.5
Source text: as §1, §2

[3] = substrate: COc1ccc2c(CC(=O)N3CCC[C@H]3C(=O)N[C@@H](CCCCN)C(=O)N3CCC[C@H]3C(=O)N[C@@H](CCC(N)=O)C(=O)N[C@@H](CCC(N)=O)C(=O)N[C@@H](Cc3ccccc3)C(=O)N[C@@H](Cc3ccccc3)C(=O)NCC(=O)N[C@@H](CC(C)C)C(=O)N[C@@H](CCCCNc3ccc([N+](=O)[O-])cc3[N+](=O)[O-])C(=O)NCC(=O)O)cc(=O)oc2c1; experiment: Fluorometric hydrolysis of synthetic Mca/Lys(Dnp) substrates by MMP-2; details: other: MMP-2, 37° C., pH 7.5
Source text: as §1, §2

[4] = substrate: CCC[C@H](NC(=O)[C@H](C)NC(=O)[C@H](Cc1ccc(O)cc1)NC(=O)[C@@H]1CCCN1C(=O)[C@H](CCCCN)NC(=O)[C@@H]1CCCN1C(=O)[C@H](CCCNC(=N)N)NC(=O)Cc1cc(=O)oc2cc(OC)ccc12)C(=O)N[C@@H](Cc1c[nH]c2ccccc12)C(=O)N[C@@H](CCSC)C(=O)N[C@@H](CCCCNc1ccc([N+](=O)[O-])cc1[N+](=O)[O-])C(N)=O; experiment: as above; details: other: MMP-2, 37° C., pH 7.5
Source text: as §1, §2

Protein | Km [1] | kcat [1] | kcat/Km [1] | Km [2] | kcat [2] | kcat/Km [2] | Km [3] | kcat [3] | kcat/Km [3] | Km [4] | kcat [4] | kcat/Km [4]
B1 | 16.6 µM | 0.04 S^-1 | 2,510 S^-1 M^-1 | 142 µM | 0.15 S^-1 | 1,060 S^-1 M^-1 |  |  |  |  |  | 
B2 |  |  |  |  |  |  | 100 µM | 1.07 S^-1 | 10,800 S^-1 M^-1 | 50 µM | 2.70 S^-1 | 54,000 S^-1 M^-1
